This is an account of results in PMC11650718, “α-Amino-β-carboxymuconate-ε-semialdehyde decarboxylase catalyzes enol/keto tautomerization of oxaloacetate” (The Journal of Biological Chemistry, 2024).

For one data set, the system named is T1, O=C(O)CC(=O)C(=O)O.
T1 construct: recombinant from pET16b-ACMSD, purified; Zn-dependent homodimer with Arg239* from adjacent subunit
The experiment in a line: purified protein. Format: biochemical, Pseudomonas fluorescens. Conditions: HEPES pH 7.0, keto to enol form.

Data set [1] deals with the molecule itself. The experiment in a line: crystal structure; malonate-bound wild-type ACMSD, 10 mg/ml (270 uM); 50 mM malonate in place of Tacsimate, 0.1 M sodium citrate tribasic pH 5.6, 12% (w/v) PEG 3350; 2.21 A.
Substrate in the data set “purified protein”: O=C(O)CC(=O)C(=O)O
The experiment in a line: purified protein. Conditions: HEPES pH 7.0, Zn enzyme, keto to enol form.

As to “ACMSD (pfACMSD) (Pseudomonas fluorescens; W194A)”, in the data set with O=C(O)CC(=O)C(=O)O, the Km stood at 800 ± 80 µM, the kcat amounted to 4.18 ± 0.25 s⁻¹ and the kcat/Km is 5200 M⁻¹ s⁻¹.
Regarding “ACMSD (pfACMSD) (Pseudomonas fluorescens; H228A)”, in the data set on O=C(O)CC(=O)C(=O)O, the Km came out at 570 ± 130 µM, the kcat was 2.98 ± 0.35 s⁻¹ and the kcat/Km was 5200 M⁻¹ s⁻¹.

B1: α-amino-β-carboxymuconate-ε-semialdehyde decarboxylase (ACMSD) from Pseudomonas fluorescens KU-7 (enzyme)
chain: MKKPRIDMHSHFFPRISEQEAAKFDANHAPWLQVSAKGDTGSIMMGKNNFRPVYQALWDPAFRIEEMDAQGVDVQVTCATPVMFGYTWEANKAAQWAERMNDFALEFAAHNPQRIKVLAQVPLQDLDLACKEASRAVAAGHLGIQIGNHLGDKDLDDATLEAFLTHCANEDIPILVHPWDMMGGQRMKKWMLPWLVAMPAETQLAILSLILSGAFERIPKSLKICFGHGGGSFAFLLGRVDNAWRHRDIVREDCPRPPSEYVDRFFVDSAVFNPGALELLVSVMGEDRVMLGSDYPFPLGEQKIGGLVLSSNLGESAKDKIISGNASKFFNINV
notes: ACMSD from Pseudomonas fluorescens KU-7, UniProt Q83V25; Zinc-dependent metalloenzyme; also called pfACMSD; wild-type ACMSD; source: stored in 25 mM HEPES pH 7.0
Turning to B1, the binding result in data set [1] was “binds”. Moreover, in the data set “purified protein”, the Km was found to be 1120 ± 140 µM, the kcat worked out at 6.51 s⁻¹ and the kcat/Km amounted to 5800 M⁻¹ s⁻¹.

What is called Km is the substrate concentration at which the rate is half of its maximum. The kcat is the number of substrate molecules converted per active site and unit of time at saturation. A word on the kcat/Km: it is the second-order rate constant that governs catalysis at low substrate concentration.
